Experimental data published in paper PMC2786245 (Biochemistry, 2009).

Target: the molecule itself
Experiment: native gel or EMSA

B1: PII Δ47−53 (deletion of the apex of the T-loop) (natural protein, Escherichia coli, UniProt P0A9Z1 1-112, looked up)
chain: MKKIDAIIKPFKLDDVREALAEVGITGMTVTEVKGFGRQKGHTELYDFLPKVKIEIVVPDDIVDTCVDTIIRTAQTGKIGDGKIFVFDVARVIRIRTGEEDDAAI
  binding result: binds
